The source of these data is PMC5714352.

The data set has as its system NucT H124N (Helicobacter pylori 26695). Briefly: EMSA. In general terms: In EMSA bound probe runs differently from free probe, usually more slowly.

A word on the Kd: it is the free concentration of one partner at which half of the binding sites on the other are occupied at equilibrium, for simple one-to-one binding. The sequence “CAACGGCATAAAGCTTGACGATTACATTGCTAGGACATCTTTGCCCACCTGCAGGTTCACCC [substrate I (XV98, 62-mer ssDNA)]” yielded an equilibrium dissociation constant (Kd) of 2 nM.
